Assays:
[1] = molecular target: MHC-I (endogenous, mouse primary cortical neurons) (mouse (endogenous in primary cortical neurons)) (UniProt P01901); assay: co-IP; cultured mouse primary cortical neurons, with or without oligomeric Aβ; anti-mouse MHC-I antibody (2G5); endogenous MHC-I and NCAM1
[2] = molecular target: single-chain trimer (SCT) of HLA-A2.1 (TAX-HLA-A2.1-hβM); assay: co-IP

Sequence of UniProt P01901 (P01901 22-369): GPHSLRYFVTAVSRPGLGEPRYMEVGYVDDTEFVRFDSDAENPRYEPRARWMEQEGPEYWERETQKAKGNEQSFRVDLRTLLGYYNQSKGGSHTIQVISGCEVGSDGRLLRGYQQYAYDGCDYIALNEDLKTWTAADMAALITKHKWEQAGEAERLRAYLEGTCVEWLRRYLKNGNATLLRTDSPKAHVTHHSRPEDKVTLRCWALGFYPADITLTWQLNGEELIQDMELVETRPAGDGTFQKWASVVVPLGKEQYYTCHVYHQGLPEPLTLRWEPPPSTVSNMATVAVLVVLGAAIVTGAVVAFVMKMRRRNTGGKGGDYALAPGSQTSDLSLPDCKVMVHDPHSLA

reduction of co-precipitated NCAM1 with Aβ treatment against control [1] [%]	fold increase of the complex with Aβ treatment [2] [fold]	Substance
50	–	NCAM1 (endogenous, mouse primary cortical neurons) (from UniProt P13595 20-1115) (natural protein)
–	1.5	NCAM1-hemagglutinin (HA) (from UniProt P13591 20-858) (natural protein)
